Laboratory results from patent US5714144A, “Human tissue-type plasminogen activator variant” (Genentech, Inc., priority 1995, dated 1998).

Columns and labels:
[1] = removal of sialic acid or chemical modification of carbohydrate; cited from earlier work
fibrin = conditions: versus t-PA control

B1: ceruloplasmin: ceruloplasmin after removal of sialic acid (protein, UniProt P00450 20-1065, looked up)
Ceruloplasmin: KEKHYYIGIIETTWDYASDHGEKKLISVDTEHSNIYLQNGPDRIGRLYKKALYLQYTDETFRTTIEKPVWLGFLGPIIKAETGDKVYVHLKNLASRPYTFHSHGITYYKEHEGAIYPDNTTDFQRADDKVYPGEQYTYMLLATEEQSPGEGDGNCVTRIYHSHIDAPKDIASGLIGPLIICKKDSLDKEKEKHIDREFVVMFSVVDENFSWYLEDNIKTYCSEPEKVDKDNEDFQESNRMYSVNGYTFGSLPGLSMCAEDRVKWYLFGMGNEVDVHAAFFHGQALTNKNYRIDTINLFPATLFDAYMVAQNPGEWMLSCQNLNHLKAGLQAFFQVQECNKSSSKDNIRGKHVRHYYIAAEEIIWNYAPSGIDIFTKENLTAPGSDSAVFFEQGTTRIGGSYKKLVYREYTDASFTNRKERGPEEEHLGILGPVIWAEVGDTIRVTFHNKGAYPLSIEPIGVRFNKNNEGTYYSPNYNPQSRSVPPSASHVAPTETFTYEWTVPKEVGPTNADPVCLAKMYYSAVEPTKDIFTGLIGPMKICKKGSLHANGRQKDVDKEFYLFPTVFDENESLLLEDNIRMFTTAPDQVDKEDEDFQESNKMHSMNGFMYGNQPGLTMCKGDSVVWYLFSAGNEADVHGIYFSGNTYLWRGERRDTANLFPQTSLTLHMWPDTEGTFNVECLTTDHYTGGMKQKYTVNQCRRQSEDSTFYLGERTYYIAAVEVEWDYSPQREWEKELHHLQEQNVSNAFLDKGEFYIGSKYKKVVYRQYTDSTFRVPVERKAEEEHLGILGPQLHADVGDKVKIIFKNMATRPYSIHAHGVQTESSTVTPTLPGETLTYVWKIPERSGAGTEDSACIPWAYYSTVDQVKDLYSGLIGPLIVCRRPYLKVFNPRRKLEFALLFLVFDENESWYLDDNIKTYSDHPEKVNKDDEEFIESNKMHAINGRMFGNLQGLTMHVGDEVNWYLMGMGNEIDLHTVHFHGHSFQYKHRGVYSSDVFDIFPGTYQTLEMFPRTPGIWLLHCHVTDHIHAGMETTYTVLQNEDTKSG
modifications: desialylated
notes: ceruloplasmin after removal of sialic acid
- half-life change [1]: decreases its half-life dramatically

B2: glutamine117 glutamic acid275 t-PA: t-PA Carbohydrate Variant Gln117 Glu275 Equivalent (protein, UniProt P00750 36-562, looked up, variant N117Q R275E)
Tissue-type plasminogen …: SYQVICRDEKTQMIYQQHQSWLRPVLRSNRVEYCWCNSGRAQCHSVPVKSCSEPRCFNGGTCQQALYFSDFVCQCPEGFAGKCCEIDTRATCYEDQGISYRGTWSTAESGAECTNWQSSALAQKPYSGRRPDAIRLGLGNHNYCRNPDRDSKPWCYVFKAGKYSSEFCSTPACSEGNSDCYFGNGSAYRGTHSLTESGASCLPWNSMILIGKVYTAQNPSAQALGLGKHNYCRNPDGDAKPWCHVLKNRRLTWEYCDVPSCSTCGLRQYSQPQFEIKGGLFADIASHPWQAAIFAKHRRSPGERFLCGGILISSCWILSAAHCFQERFPPHHLTVILGRTYRVVPGEEEQKFEVEKYIVHKEFDDDTYDNDIALLQLKSDSSRCAQESSVVRTVCLPPADLQLPDWTECELSGYGKHEALSPFYSERLKEAHVRLYPSSRCTSQHLLNRTVTDNMLCAGDTRSGGPQANLHDACQGDSGGPLVCLNDGRMTLVGIISWGLGCGQKDVPGVYTKVTNYLDWIRDNMRP
- fibrin stimulation and specific activity (fibrin): superior to t-PA control in fibrin stimulation and specific activity
